# Results published in patent US20220265819A1 (GEN2 NEUROSCIENCE, published 2022).
# Substitutions are numbered along the chain they refer to. Where no end group is shown, it is not given here.
# T1: antigen peptide [C]-SPVVSGDTSPRHLSN-amide (tau 396-410 with N-terminal cysteine) (human)
# T1 construct: Not phosphorylated; Coated free, or conjugated through the N-terminal Cys to BSA or transferrin (phage ELISA); The N-terminal Cys is not part of tau; also called target peptide; short linear peptide
# T1 peptide: CSPVVSGDTSPRHLSN-NH2
# B1: Clone 6 rabbit monoclonal IgG (antibody, V domains shown)
# VH: QSVEESGGRLVTPGTPLTLTCTVSGFSLSSYDMSWVRQAPGKGLEWIGTIGRYYNTYYATWAKGRFTISKTSSTTVDLKMTSLTTEDTATYFCASSGIWGPGTLVTVSL
# VL: AQVLTQTASPVSAAVGGTVTINCQSSQTVYNNNYLSWYQQKPGQPPKRLIYLASTLESGVPSRFSGSGSGTQFTLTISGVVCDDAATYYCAGTYSGSIWAFGGGTEVVVKG
# notes: Rabbit IgG expressed in HEK293F; also called P2-C11; A4
# B2: Clone 3 rabbit monoclonal IgG (antibody, V domains shown)
# VH: B1 VH with V23A, S30R, G51S, R52G, Y53S, A59M, T60S
# VL: AQVLTQTASPVSAAVGGTVTINCQSSQRVYSNYLSWYQQKPGQPPRRLIWLASTLESGVPSRFSGSGSGTQFTLTISGVVCDDAATYYCAGTYSGSIWAFGGGTEVVVKG
# notes: Rabbit IgG expressed in HEK293F; also called P2-B12; D4
# B3: Clone 4 rabbit monoclonal IgG (antibody, V domains shown)
# VH: B1 VH
# VL: B1 VL
# notes: Rabbit IgG expressed in HEK293F; also called P2-E5; B3
# B4: Clone 5 rabbit monoclonal IgG (antibody, V domains shown)
# VH: B1 VH with V3L, T12A, K42R, G51S, R52S, Y53S, N55R, T60S
# VL: B2 VL with S31N, S35A, R46K, W50Y
# notes: Rabbit IgG expressed in HEK293F; also called P1-B2; A1
# B5: Clone 7 rabbit monoclonal IgG (antibody, V domains shown)
# VH: B1 VH
# VL: B1 VL
# notes: Rabbit IgG expressed in HEK293F; also called P1-D10; D2
# B6: Clone 8 rabbit monoclonal IgG (antibody, V domains shown)
# VH: B1 VH with V3L, T12A, K42R, G51S, R52S, Y53S, N55R, T60S
# VL: B2 VL with S31N, S35A, R46K, W50Y
# notes: Rabbit IgG expressed in HEK293F; also called P2-F3; H2
# B7: Clone 11 human scFv (phage displayed) (scFv, V domains shown)
# VH: QVQLQQWGGGLVKPSETLSLTCGVSGGSFNDYYWTWIRQPQGKGLEWIGEINHVGSSRYNPSLGSRVTMSVDTSKSQFSLTLTAVTAADTAIYYCTRGRKTRRVKFFSRYSRDWFDPWGQGSRVTVSS
# VL: VMTQSPATLSVSPGERATLSCRASQSVSSNLAWYQQKPGQAPRLLIYGASSRATGIPDRFSGSGSGTDFTLTISRLEPEDFATYYCQQLNSYPFTFGPGTKVDIK
# notes: also called rx7; C6
# B8: Clone 12 human scFv (phage displayed) (scFv, V domains shown)
# VH: B7 VH
# VL: MTQSPSSLSASVGDRVTITCRASQGISNYLAWYQQKPGKVPKLLIYAASTLQSGVPSRFSGSGSGTDFTLTISSLQPEDVATYYCQKYNSAPFTFGPGTKVDIK
# notes: also called rx8; H11
# B9: Clone 13 human scFv (phage displayed) (scFv, V domains shown)
# VH: ESGGGVVKPGGSLRLACEASGFTFNKYAMSWVRQAPGKGLEWVSGNSGSGNSTYYADSVKGRFTISRDNSKNILYLDMNNLRAEDTALYYCAKTRGAGRRKPYGMDVWGHGTTVTVSS
# VL: VMTQSPSTLSLSPGERATLSCRASQSVANNYLAWYQHKPGQAPRVLIYGASSRATGIPDRFSGSGSGTDFTLTISRLEPEDFAVYYCQQYGSSPRTFGGGTKLEIK
# notes: also called rx9; D12
# B10: Clone 24 (VH3Vκ4), humanised variant of clone #28, human IgG1 (antibody, V domains shown)
# VH: QVQLQESGPGLVKPSETLSLTCTVSGFSLNNYDMSWVRQAPGKGLEWIGTVSTTYRRYYASWAKGRFTISKTSSTTVDLQMTSLTAEDTATYFCAASGIWGRGTLVTVSS
# VL: DIQMTQSPSTLSASVGDRVTITCQSSQRVYSNYLAWYQQKPGQPPKRLIFLASTLESGVPSRFSGSGSGTEFTLTISSLQPDDFATYYCAGTYTGSIWAFGGGTKVEIK
# notes: also called VH3VK4; VH3Vk4
# B11: Clone 9 human scFv (phage displayed) (scFv, V domains shown)
# VH: VQLVESGGGFVQPGGSLRLSCAASGFTFTDYGIHWVRQAPGKGLEWVAVISHDGSHKYYSDSVKGRSTISRDSSDNTVSLQLDGLRADDTALYYCAKDLPQTGALDFWGRGTLITVSS
# VL: MTQSPSSLSASVGDRVTITCQASQDISNYLNWYQQKPGKAPKLLIYDASNLETGVPSRFSGSGSGTDFTFTISSLQPEDFATYYCQQANSFPITFGQGTRLEIK
# notes: also called rx2; E5
# Assays:
# [1] = target: T2, full length recombinant human 2N4R tau (amino acids 1-441) (human, UniProt P10636 1-758); assay: ELISA, HEK293F supernatant on coated tau
# T2 construct: Bought (rPeptide); recombinant, non-phosphorylated; also called recombinant tau
# Protocol: (§1) Antigen was removed from wells and the plates were then blocked for 1 hour at RT with 5% dried milk in 1×TBS. Blocking solution was removed. HEK293F cell supernatant (10 μg/mL, to 0.0001 μg/mL in 1% BSA/1×TBS) was added to relevant wells, and plates were incubated for 1 hour at RT with gentle shaking. Plates were then washed four times with TBS/0.1% Tween (TBST). Anti-rabbit IgG-HRP antibody (Sigma. St Louis, Mo., USA), diluted 1:5000 in 5% milk/TBS, was added to each well and plates were incubated for 1 hour at RT with gentle shaking before being washed four times with TBST. 3,3′,5,5′-tetramethylbenzidine (TMB) ELISA solution was added to each well and plates were incubated for 15 mins at RT. An equal volume of 1 M sulfuric acid was added to each well and OD was measured at 450 nm.
# Bovine serum albumin [2] = target: T3, Bovine serum albumin (bovine, UniProt P02769 25-607); assay: ELISA on 1% BSA, HEK293F supernatant, anti-rabbit IgG-HRP, n=1
# T3 construct: Negative control antigen in ELISA; also called BSA
# Protocol: FIG. 9. A panel of anti-tau IgG bind to linear immunogen peptide and full length recombinant 2N4R tau in ELISA format. […] Binding of anti-tau IgG was detected using an HRP-conjugated anti-rabbit secondary antibody and data shown are from a representative experiment (n=1).
# as §1
# [3] = target: T1, antigen peptide …; assay: phage ELISA, phage supernatant 1:25, anti-M13-HRP, n=1
# From the text: (§2) FIG. 7. A panel of phage display-derived anti-tau scFv bind to linear immunogen peptide and full length 2N4R tau in phage ELISA. Phage expressing scFv clones bind to the short linear peptide (SEQ ID NO: 13) (A) conjugated to BSA (black bars) or transferrin (white bars) and to full length recombinant 2N4R tau (B). […] Binding of phage was detected using an HRP-conjugated anti-alpha-M13 antibody and data shown are from a representative experiment (n=1).
# (§3) 10.1 Phage ELISA: Supernatants prepared from bacterial cultures infected with phage displaying scFv were tested for binding to full length recombinant 2N4R tau (100 ng/well), target peptide (SEQ ID NO: 13) conjugated to BSA or transferrin (1 μg/well) or BSA (1% in TBS) using standard methods. Antigen was coated onto ELISA plates, then removed, and plates were blocked for 1 h with 5% dried milk in TBS. Samples were diluted 1:25 in 1% BSA/TBS then added to the ELISA plate for 1 h at room temperature (RT). Plates were then washed ×4 with TBS/0.1% Tween (TBST). Alpha-M13-HRP antibody (Abcam, Cambridge, UK) was added (1:5000 dilution in 5% milk/TBS) and incubated for 1 h at RT before washing ×4. TMB ELISA solution was added to each well for 10 min at RT, followed by 1 M sulphuric acid. OD was then measured at 450 nm.
# Bovine serum albumin [4] = target: T3, Bovine serum albumin; assay: phage ELISA
# Protocol: as §3
# [5] = target: T2, full length recombinant human 2N4R tau …; assay: phage ELISA, tau 100 ng/well, phage supernatant 1:25, anti-M13-HRP, n=1
# From the text: as §2, §3
# [6] = target: full length pHrodo-labelled aggregated (P301S) 2N4R tau (human, UniProt P10636 1-758, labelled with pHrodo Red Maleimide); assay: cell-based or functional assay
# [7] = target: full length pHrodo-labelled monomeric (P301S) 2N4R tau (human, UniProt P10636 1-758, labelled with pHrodo Red Maleimide); assay: cell-based or functional assay
# Bovine serum albumin [8] = target: T3, Bovine serum albumin; assay: ELISA on 1% BSA, HEK supernatant, anti-human IgG-HRP, n=1
# Protocol: as §1, with “removed, HEK293” for “removed. HEK293F”, “(1:100” for “(10 μg/mL, to 0.0001 μg/mL”, “Goat-anti-human” for “Anti-rabbit”, “(ThermoFisher Scientific, Waltham, Mass.” for “(Sigma. St Louis, Mo.,”, “1:2000” for “1:5000”
# [9] = target: T2, full length recombinant human 2N4R tau …; assay: SPR Biacore SCK, IgG on Protein A, tau analyte
# Protocol: (§4) 23.5 Assessment of antibody binding to tau (Biacore SCK analysis): Binding of anti-tau hIgG1 to full length recombinant 2N4R tau (Rpeptide; SEQ ID NO: 2) was assessed using the Biacore T200 (GE Healthcare, Chicago, Ill., USA) running Biacore T200 Evaluation Software V2.0.1. hIgG1 were immobilised on a Protein A capture sensor chip in running buffer (HBS-EP+ buffer containing 1 mg/mL BSA) at 25° C. captured to ˜50 RU at 10 μL/min. For single-cycle kinetics experiments, recombinant 2N4R tau was flowed at concentrations ranging from 5 nM to 40 nM (2-fold dilutions) with an association time of 150 s and a dissociation time of 200 s. Curves were compared to a reference cell that was mock immobilized (no antibody present).
# Data were analysed using Langmuir (1:1) binding analysis, describing a 1:1 interaction at the surface: […]
# [10] = target: T2, full length recombinant human 2N4R tau …; assay: SPR Biacore MCK, purified IgG on Protein A, tau analyte
# Protocol: Biacore multi-cycle kinetics (MCK) analyses for antibody binding to recombinant (non-phosphorylated) 2N4R tau are summarised in FIG. 23 and Table 8. […] Slight variations in RMAX are considered likely to be due to differences in ligand capture and not reflective of significant variation in antibody binding characteristics.
# as §4, with “24.2” for “23.5”, “MCK” for “SCK”, “For single-cycle kinetics experiments, recombinant 2N4R tau was flowed at concentrations ranging from 5 nM to 40 nM (2-fold dilutions) with an association time of 150 s and a dissociation time of 200 s.” left out
# Chain of full length pHrodo-labelled aggregated (P301S) 2N4R tau (P10636 other isoform, or with tags, fused parts or gaps P301S P301S): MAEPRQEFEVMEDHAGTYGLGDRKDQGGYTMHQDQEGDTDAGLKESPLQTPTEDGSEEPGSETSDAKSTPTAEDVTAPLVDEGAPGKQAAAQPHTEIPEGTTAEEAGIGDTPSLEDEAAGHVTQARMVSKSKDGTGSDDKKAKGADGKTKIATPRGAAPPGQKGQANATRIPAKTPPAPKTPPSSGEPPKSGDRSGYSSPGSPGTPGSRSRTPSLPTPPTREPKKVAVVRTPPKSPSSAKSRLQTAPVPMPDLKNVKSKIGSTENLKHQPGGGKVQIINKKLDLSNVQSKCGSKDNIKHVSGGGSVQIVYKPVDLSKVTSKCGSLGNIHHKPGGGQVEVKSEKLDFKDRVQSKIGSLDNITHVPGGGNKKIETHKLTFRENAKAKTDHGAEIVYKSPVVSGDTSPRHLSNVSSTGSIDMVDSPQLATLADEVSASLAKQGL
# T3 sequence (P02769 25-607 limits assumed): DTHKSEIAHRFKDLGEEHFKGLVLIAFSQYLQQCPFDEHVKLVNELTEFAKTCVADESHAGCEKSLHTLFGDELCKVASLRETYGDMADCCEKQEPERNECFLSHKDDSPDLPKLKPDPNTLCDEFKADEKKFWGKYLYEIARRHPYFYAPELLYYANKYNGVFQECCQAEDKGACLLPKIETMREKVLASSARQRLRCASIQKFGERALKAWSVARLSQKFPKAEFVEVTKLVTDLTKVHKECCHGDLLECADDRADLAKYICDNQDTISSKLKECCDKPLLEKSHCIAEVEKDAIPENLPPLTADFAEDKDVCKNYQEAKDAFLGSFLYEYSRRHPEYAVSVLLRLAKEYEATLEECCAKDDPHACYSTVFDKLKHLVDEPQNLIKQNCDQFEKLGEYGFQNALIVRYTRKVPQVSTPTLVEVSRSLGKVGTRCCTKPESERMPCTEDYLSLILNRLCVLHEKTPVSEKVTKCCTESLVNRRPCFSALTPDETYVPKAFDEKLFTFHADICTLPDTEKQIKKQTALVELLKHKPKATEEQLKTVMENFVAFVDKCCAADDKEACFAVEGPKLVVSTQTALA
# T2 sequence (P10636 other isoform, or with tags, fused parts or gaps limits assumed): as the sequence (P10636 other isoform, or with tags, fused parts or gaps P301S P301S) above, with S301P counted along it
# Chain of full length pHrodo-labelled monomeric (P301S) 2N4R tau (P10636 other isoform, or with tags, fused parts or gaps P301S P301S): as the sequence (P10636 other isoform, or with tags, fused parts or gaps P301S P301S) above
binder,measurement,setting,value
B1,OD (ELISA),[1],0.3 OD
same,binding result,Bovine serum albumin [2],no binding (tested: supernatant 1:50)
B2,OD (ELISA),[1],0.3 OD
same,binding result,Bovine serum albumin [2],no binding (tested: supernatant 1:50)
B3,OD (ELISA),[1],0.3 OD
same,binding result,Bovine serum albumin [2],no binding (tested: supernatant 1:50)
B4,OD (ELISA),[1],0.3 OD
same,binding result,Bovine serum albumin [2],no binding (tested: supernatant 1:50)
B5,OD (ELISA),[1],0.3 OD
same,binding result,Bovine serum albumin [2],no binding (tested: supernatant 1:50)
B6,OD (ELISA),[1],0.3 OD
same,binding result,Bovine serum albumin [2],no binding (tested: supernatant 1:50)
B7,binding result,[3],binds
same,binding result,Bovine serum albumin [4],no binding (tested: 1:25 phage supernatant)
same,binding result,[5],binds
B8,binding result,[3],binds
same,binding result,Bovine serum albumin [4],no binding (tested: 1:25 phage supernatant)
same,binding result,[5],binds
B9,binding result,Bovine serum albumin [4],no binding (tested: 1:25 phage supernatant)
B10,increase of uptake of aggregated tau into human iPSC-derived microglia,[6],267 % increase
same,inhibition of uptake of aggregated tau into human iPSC-derived astrocytes,[6],30.8 % inhibition
same,inhibition of uptake of aggregated tau into human iPSC-derived neurons,[6],61.4 % inhibition
same,inhibition of uptake of monomeric tau into human iPSC-derived astrocytes,[7],31.5 % inhibition
same,inhibition of uptake of monomeric tau into human iPSC-derived neurons,[7],63.3 % inhibition
same,binding result,Bovine serum albumin [8],no binding (tested: supernatant 1:100)
same,Kd,[9],21.2 nM
same,Relative KD,[9],0.47 fold vs VH0VK0
same,koff,[9],0.00146 s⁻¹
same,kon,[9],68900 M⁻¹ s⁻¹
same,Kd,[10],17.1 nM
same,Relative KD,[10],0.69 fold vs VH0VK0
same,koff,[10],0.0013 s⁻¹
same,kon,[10],76100 M⁻¹ s⁻¹
B11,binding result,[3],binds
same,binding result,Bovine serum albumin [4],no binding (tested: 1:25 phage supernatant)
same,binding result,[5],binds
